Laboratory results reported in EP4786492A1 (Simcere Zaiming Pharmaceutical Co., Ltd., dated 2026).
Numbering of substitutions follows the chain as printed.

T1: human DLL3-his protein (human, UniProt Q9NYJ7 27-492)
T1 construct: also called human DLL3 protein; DLL3 antigen protein; not shown: His tag
T1 sequence: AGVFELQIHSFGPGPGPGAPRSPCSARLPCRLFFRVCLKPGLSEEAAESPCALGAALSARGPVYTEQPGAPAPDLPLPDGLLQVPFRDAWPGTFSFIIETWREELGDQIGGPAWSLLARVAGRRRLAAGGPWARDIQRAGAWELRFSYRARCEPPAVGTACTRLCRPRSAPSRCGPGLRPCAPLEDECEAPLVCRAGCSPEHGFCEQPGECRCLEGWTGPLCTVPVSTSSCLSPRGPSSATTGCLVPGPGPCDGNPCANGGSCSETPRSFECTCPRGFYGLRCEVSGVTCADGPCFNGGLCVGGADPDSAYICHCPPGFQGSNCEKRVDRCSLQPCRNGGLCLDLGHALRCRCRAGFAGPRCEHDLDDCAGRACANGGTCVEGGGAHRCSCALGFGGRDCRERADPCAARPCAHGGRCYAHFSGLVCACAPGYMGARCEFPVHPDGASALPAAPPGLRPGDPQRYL

T2: monkey DLL3 on CHO K1-cyno DLL3 cells (cynomolgus monkey)
T2 construct: also called monkey DLL3 recombinant cell line
T2 chain: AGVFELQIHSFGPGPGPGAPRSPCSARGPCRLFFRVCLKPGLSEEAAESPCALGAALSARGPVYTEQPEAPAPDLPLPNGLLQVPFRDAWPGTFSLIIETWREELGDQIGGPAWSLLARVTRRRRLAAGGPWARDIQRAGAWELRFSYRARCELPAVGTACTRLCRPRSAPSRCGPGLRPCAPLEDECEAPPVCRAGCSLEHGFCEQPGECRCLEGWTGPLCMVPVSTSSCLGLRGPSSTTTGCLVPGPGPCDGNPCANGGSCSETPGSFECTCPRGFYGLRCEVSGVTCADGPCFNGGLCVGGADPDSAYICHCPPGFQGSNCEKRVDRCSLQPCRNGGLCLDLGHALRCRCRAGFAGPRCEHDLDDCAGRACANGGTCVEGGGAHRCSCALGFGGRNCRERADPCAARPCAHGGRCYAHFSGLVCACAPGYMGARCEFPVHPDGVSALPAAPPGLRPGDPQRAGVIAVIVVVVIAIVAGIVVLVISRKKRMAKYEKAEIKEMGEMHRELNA

T3: human DLL1 protein (human, UniProt O00548 18-540, limits assumed)
T3 construct: bought protein; construct and tag not described; also called hDLL1
T3 sequence (looked up): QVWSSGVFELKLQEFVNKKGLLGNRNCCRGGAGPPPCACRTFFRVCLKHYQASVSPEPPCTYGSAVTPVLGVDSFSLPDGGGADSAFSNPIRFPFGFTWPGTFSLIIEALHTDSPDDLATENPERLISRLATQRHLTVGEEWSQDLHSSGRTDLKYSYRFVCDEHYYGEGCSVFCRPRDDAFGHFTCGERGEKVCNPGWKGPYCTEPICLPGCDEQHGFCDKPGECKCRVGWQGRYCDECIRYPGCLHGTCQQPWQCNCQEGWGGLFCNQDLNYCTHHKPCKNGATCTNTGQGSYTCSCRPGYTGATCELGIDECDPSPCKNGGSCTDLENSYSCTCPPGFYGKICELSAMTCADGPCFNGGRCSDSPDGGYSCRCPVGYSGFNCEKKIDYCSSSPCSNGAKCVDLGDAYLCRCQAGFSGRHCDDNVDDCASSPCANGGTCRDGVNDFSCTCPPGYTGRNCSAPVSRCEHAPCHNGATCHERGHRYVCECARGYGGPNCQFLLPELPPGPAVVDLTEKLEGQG

T4: mouse DLL3 on CHO K1-mDLL3 cells (mouse, UniProt O88516 33-490)
T4 construct: also called mouse DLL3 recombinant cell line
T4 sequence: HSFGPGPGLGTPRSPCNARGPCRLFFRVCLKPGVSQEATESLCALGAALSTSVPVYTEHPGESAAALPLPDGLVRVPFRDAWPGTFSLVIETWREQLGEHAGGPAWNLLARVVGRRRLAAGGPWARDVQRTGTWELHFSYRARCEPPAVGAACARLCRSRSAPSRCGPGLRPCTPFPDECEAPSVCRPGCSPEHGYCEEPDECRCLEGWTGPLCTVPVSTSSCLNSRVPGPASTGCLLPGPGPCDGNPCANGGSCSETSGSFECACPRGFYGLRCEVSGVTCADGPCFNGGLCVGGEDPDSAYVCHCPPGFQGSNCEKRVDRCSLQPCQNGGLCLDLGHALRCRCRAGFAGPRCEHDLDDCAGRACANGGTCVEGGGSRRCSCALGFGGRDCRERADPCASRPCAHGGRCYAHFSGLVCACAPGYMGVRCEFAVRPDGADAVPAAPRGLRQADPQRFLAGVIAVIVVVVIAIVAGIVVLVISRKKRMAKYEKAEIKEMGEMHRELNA

T5: human DLL3 on CHO-K1 hDLL3 cells (human, UniProt Q9NYJ7 27-492)
T5 construct: also called human DLL3 recombinant cell line
T5 sequence: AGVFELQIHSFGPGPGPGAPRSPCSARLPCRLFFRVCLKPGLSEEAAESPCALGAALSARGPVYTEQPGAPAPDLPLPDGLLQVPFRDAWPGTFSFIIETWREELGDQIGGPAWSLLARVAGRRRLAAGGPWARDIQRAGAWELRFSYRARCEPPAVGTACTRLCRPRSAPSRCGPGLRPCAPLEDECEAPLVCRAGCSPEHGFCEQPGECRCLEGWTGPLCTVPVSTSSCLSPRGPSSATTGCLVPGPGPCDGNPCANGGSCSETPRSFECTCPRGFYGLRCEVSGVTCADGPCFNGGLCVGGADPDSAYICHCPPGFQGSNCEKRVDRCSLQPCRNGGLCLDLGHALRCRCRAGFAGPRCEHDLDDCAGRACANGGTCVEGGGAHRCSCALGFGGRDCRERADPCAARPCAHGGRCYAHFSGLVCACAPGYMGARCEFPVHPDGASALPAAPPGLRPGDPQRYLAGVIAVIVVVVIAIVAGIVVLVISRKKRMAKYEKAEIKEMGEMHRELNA

T6: human DLL3 endogenously expressed on SHP77 and NCI-H82 cells (human, UniProt Q9NYJ7 27-618)
T6 construct: whole, on cells; cells endogenously expressing DLL3; also called SHP77 cells; SHP-77 cells
T6 sequence (looked up): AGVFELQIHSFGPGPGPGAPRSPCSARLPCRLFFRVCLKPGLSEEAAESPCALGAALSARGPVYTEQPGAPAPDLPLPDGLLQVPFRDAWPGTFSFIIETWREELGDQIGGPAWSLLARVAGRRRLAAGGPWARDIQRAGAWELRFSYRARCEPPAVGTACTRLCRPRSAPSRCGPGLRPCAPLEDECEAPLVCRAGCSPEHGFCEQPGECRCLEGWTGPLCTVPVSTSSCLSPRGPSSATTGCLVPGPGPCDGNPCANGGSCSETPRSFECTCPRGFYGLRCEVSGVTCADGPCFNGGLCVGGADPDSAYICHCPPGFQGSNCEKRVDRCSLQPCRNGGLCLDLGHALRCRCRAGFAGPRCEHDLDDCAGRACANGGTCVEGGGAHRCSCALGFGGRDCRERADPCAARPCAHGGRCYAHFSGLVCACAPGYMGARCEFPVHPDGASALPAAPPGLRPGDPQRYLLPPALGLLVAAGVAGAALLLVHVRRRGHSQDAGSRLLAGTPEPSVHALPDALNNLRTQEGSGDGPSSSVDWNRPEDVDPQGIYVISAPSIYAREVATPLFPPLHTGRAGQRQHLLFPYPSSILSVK

B1: mab011 scFv-hFc (Fc fusion)
scFv (part 1 of 2): DIVLTQSPATLSVTPGDSVSLSCRASQSISNNLHWYQQKSHESPRLLIKYASQSISGIPSRFSGSGSGTDFTLSINSVETEDFGMYFCQQSNSWPWTFGGGTKLEIK
scFv (part 2 of 2): EVQLQQSGPELVKPGASVKISCKASGYTFTDYYMNWVKQSHGKSLEWIGDISPNYGGTNYNQKFKGKATLTVDKSSSTACMELRSLTSEDSAVYYCTRSFYYYGTGYDWYFDVWGTGTTVTVSS
notes: human-murine chimeric scFv-hFc, VL-linker-VH-human IgG1 Fc; not shown: linker; Fc fragment of human IgG1
B2: Hab015VL4VH5a-hFc (Fc fusion)
scFv (part 1 of 2): NIVLTQSPATLSLSPGERATLSCKASENVGTYVSWFQQKPGQSPRLLIYGASNRYTGIPARFSGSGSGTDFTLTISSLEPEDFAVYYCGQFYSFPSTFGGGTKVEIK
scFv (part 2 of 2): EVQLVESGGGLVKPGGSLRLSCVASGITFSNFWMNWVRQAPGKGLEWVGQIRLKSDDYATHYAESVKGRFTISREDSKNTVYLQMNSLKTEDTAVYYCTTGYYFDYWGQGTTVTVSS
notes: humanized mab015, VL-linker-VH-human IgG1 Fc; also called Hab015L4H5a; not shown: linker; human IgG1 Fc fragment
B3: Hab015VL4VH6a-hFc (Fc fusion)
scFv (part 1 of 2): B2 scFv (part 1 of 2)
scFv (part 2 of 2): B2 scFv (part 2 of 2) with V23A, G42E
notes: humanized mab015, VL-linker-VH-human IgG1 Fc; also called Hab015L4H6a; not shown: linker; human IgG1 Fc fragment
B4: Hab015VL5VH1a-hFc (Fc fusion)
scFv (part 1 of 2): NIQMTQSPSSLSASVGDRVTITCKASENVGTYVSWYQQKPGKSPKLLIYGASNRYTGVPSRFSGSGSGTDFTLTISSLQPEDFATYYCGQFYSFPSTFGGGTKVEIK
scFv (part 2 of 2): B2 scFv (part 2 of 2) with V23A
notes: humanized mab015, VL-linker-VH-human IgG1 Fc; also called Hab015L5H1a; not shown: linker; human IgG1 Fc fragment
B5: Hab015VL5VH5a-hFc (Fc fusion)
scFv (part 1 of 2): B4 scFv (part 1 of 2)
scFv (part 2 of 2): B2 scFv (part 2 of 2)
notes: humanized mab015, VL-linker-VH-human IgG1 Fc; also called Hab015L5H5a; not shown: linker; human IgG1 Fc fragment
B6: Hab015VL5VH6a-hFc (Fc fusion)
scFv (part 1 of 2): B4 scFv (part 1 of 2)
scFv (part 2 of 2): B2 scFv (part 2 of 2) with V23A, G42E
notes: humanized mab015, VL-linker-VH-human IgG1 Fc; also called Hab015L5H6a; not shown: linker; human IgG1 Fc fragment
B7: Hab008L1H2a-hFc (Fc fusion)
scFv (part 1 of 2): DIQMTQSPSSLSASVGDRVTITCKASQNVGTAVAWYQQKPGKSPKLLIFSASIRYTGVPSRFSGSGSGTDFTLTISSLQPEDFATYYCQQYSSSPYTFGGGTKVEIK
scFv (part 2 of 2): EVQLVQSGAEVKKPGASVKVSCKASGYTFTDYYMNWVRQAPGQRLEWMGIINPYNSGTSYNQKFRGRVTLTVDKSASTAYMELSSLRSEDTAVYYCSRYDYDYDVEGAMDYWGQGTTVTVSS
notes: humanized mab008, VL-linker-VH-human IgG1 Fc; also called Hab008 humanized molecule; not shown: linker; human IgG1 Fc fragment
B8: Hab008L1H5-hFc (Fc fusion)
scFv (part 1 of 2): B7 scFv (part 1 of 2)
scFv (part 2 of 2): B7 scFv (part 2 of 2) with Q39R, S56G, L70I
notes: as for B7
B9: Hab008L3H2a-hFc (Fc fusion)
scFv (part 1 of 2): DIVMTQSPDSLAVSLGERATINCKASQNVGTAVAWYQQKPGQSPKLLIFSASIRYTGVPDRFSGSGSGTDFTLTISSLQAEDVAVYYCQQYSSSPYTFGGGTKVEIK
scFv (part 2 of 2): B7 scFv (part 2 of 2)
notes: as for B7
B10: Hab008L3H5-hFc (Fc fusion)
scFv (part 1 of 2): B9 scFv (part 1 of 2)
scFv (part 2 of 2): B7 scFv (part 2 of 2) with Q39R, S56G, L70I
notes: as for B7

Key:
[1] = biological target: T1, human DLL3-his protein; assay: ELISA
[2] = biological target: T2, monkey DLL3 on CHO K1-cyno DLL3 cells; assay: FACS, CHO K1-cyno DLL3 cells
[3] = biological target: T3, human DLL1 protein; assay: ELISA, maximum over 0.1-100 nM
[4] = biological target: T7, human DLL4 protein (human, UniProt Q9NR61 27-524, limits assumed); assay: ELISA, maximum over 0.1-100 nM
T7 construct: bought protein; construct and tag not described; also called hDLL4
T7 sequence (Q9NR61 27-524 limits assumed): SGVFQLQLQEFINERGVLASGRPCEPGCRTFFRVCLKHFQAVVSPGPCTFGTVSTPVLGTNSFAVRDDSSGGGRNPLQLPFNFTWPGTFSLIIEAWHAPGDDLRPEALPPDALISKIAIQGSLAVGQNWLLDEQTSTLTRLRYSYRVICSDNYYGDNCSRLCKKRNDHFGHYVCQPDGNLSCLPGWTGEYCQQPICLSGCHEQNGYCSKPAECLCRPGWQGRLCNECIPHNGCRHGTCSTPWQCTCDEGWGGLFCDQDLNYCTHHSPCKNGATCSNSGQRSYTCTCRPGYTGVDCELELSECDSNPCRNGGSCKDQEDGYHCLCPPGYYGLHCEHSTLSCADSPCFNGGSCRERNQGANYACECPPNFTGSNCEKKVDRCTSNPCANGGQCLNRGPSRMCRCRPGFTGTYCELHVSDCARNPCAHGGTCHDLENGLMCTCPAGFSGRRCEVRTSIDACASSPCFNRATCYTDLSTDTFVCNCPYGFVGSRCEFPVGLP

[5] = biological target: T4, mouse DLL3 on CHO K1-mDLL3 cells; assay: FACS, CHO K1-mDLL3 cells
[6] = biological target: T5, human DLL3 on CHO-K1 hDLL3 cells; assay: FACS, CHO-K1 hDLL3 cells
[7] = biological target: T6, human DLL3 endogenously expressed on …; assay: FACS, SHP77 and NCI-H82 cells

Binder	binding result [1]	binding result [2]	Emax of OD450 nm binding value [3]	Emax of OD450 nm binding value [4]	binding result [5]	binding result [6]	binding result [7]
B1	binds	binds	0.06 OD450	0.06 OD450	–	–	–
B2	binds	binds	–	–	binds	binds	binds
B3	binds	binds	–	–	binds	binds	binds
B4	binds	binds	–	–	binds	binds	binds
B5	binds	binds	–	–	binds	binds	binds
B6	binds	binds	–	–	binds	binds	binds
B7	binds	binds	–	–	no binding	binds	binds
B8	binds	binds	–	–	no binding	binds	binds
B9	binds	binds	–	–	no binding	binds	binds
B10	binds	binds	–	–	no binding	binds	binds
